{"source": "patent US20240390512A1", "about": "(Daiichi Sankyo, published 2024)", "key": {"[1]": {"target": "T1, human CDH6 (cadherin-6), full-length, on cells (human, UniProt P55285 54-790)", "T1 construct": "also called hCDH6; full-length hCDH6", "T1 sequence": "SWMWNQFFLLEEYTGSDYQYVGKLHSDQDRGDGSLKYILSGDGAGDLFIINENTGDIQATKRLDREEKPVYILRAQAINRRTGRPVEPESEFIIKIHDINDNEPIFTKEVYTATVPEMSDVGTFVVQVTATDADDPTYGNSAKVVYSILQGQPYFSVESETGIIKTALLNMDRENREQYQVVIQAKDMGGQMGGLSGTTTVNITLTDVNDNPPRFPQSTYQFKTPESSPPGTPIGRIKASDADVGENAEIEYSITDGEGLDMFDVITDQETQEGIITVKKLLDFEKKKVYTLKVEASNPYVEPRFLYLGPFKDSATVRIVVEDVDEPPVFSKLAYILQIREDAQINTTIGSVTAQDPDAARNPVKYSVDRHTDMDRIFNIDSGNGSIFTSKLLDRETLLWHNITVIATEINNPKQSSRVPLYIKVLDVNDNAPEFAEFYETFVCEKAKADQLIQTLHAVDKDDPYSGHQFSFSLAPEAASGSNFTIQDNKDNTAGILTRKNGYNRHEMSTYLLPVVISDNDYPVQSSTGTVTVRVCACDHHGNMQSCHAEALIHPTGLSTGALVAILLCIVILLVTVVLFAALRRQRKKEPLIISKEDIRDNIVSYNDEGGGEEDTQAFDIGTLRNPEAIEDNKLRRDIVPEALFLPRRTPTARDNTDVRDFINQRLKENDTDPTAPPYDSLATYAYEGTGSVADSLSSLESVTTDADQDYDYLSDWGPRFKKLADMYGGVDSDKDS", "experiment": "flow cytometry; 293α cells transfected with pcDNA3.1-hCDH6; PE anti-human IgG Fcγ F(ab')2"}, "[2]": {"target": "T2, cynomolgus monkey CDH6, on cells (cynomolgus monkey, UniProt P55285 54-790 (human entry))", "T2 construct": "Expressed from pcDNA3.1-cynoCDH6; also called cynoCDH6", "T2 sequence": "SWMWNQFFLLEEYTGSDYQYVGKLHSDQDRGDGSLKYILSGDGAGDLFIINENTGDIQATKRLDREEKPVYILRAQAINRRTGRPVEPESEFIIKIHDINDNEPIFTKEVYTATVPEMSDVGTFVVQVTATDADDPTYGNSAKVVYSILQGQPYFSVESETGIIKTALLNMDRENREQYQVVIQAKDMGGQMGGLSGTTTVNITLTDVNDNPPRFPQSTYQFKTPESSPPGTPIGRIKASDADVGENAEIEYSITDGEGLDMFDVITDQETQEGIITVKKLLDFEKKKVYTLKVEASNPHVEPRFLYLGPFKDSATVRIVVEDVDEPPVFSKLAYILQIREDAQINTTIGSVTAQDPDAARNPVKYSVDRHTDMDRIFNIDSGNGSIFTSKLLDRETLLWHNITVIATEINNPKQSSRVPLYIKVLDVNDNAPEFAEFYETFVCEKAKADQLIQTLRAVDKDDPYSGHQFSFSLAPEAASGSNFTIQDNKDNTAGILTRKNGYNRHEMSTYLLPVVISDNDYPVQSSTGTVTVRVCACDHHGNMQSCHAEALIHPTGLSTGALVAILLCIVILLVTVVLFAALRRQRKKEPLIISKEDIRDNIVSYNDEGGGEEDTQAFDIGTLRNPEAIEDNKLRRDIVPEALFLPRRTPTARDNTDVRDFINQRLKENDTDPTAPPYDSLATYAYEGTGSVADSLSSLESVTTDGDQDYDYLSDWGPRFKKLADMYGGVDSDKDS", "experiment": "flow cytometry; 293α cells transfected with pcDNA3.1-cynoCDH6; PE anti-human IgG Fcγ F(ab')2"}, "[3]": {"target": "T3, rat CDH6, on cells (rat, UniProt P55280 54-789)", "T3 construct": "also called rCDH6; NP_037059", "T3 sequence": "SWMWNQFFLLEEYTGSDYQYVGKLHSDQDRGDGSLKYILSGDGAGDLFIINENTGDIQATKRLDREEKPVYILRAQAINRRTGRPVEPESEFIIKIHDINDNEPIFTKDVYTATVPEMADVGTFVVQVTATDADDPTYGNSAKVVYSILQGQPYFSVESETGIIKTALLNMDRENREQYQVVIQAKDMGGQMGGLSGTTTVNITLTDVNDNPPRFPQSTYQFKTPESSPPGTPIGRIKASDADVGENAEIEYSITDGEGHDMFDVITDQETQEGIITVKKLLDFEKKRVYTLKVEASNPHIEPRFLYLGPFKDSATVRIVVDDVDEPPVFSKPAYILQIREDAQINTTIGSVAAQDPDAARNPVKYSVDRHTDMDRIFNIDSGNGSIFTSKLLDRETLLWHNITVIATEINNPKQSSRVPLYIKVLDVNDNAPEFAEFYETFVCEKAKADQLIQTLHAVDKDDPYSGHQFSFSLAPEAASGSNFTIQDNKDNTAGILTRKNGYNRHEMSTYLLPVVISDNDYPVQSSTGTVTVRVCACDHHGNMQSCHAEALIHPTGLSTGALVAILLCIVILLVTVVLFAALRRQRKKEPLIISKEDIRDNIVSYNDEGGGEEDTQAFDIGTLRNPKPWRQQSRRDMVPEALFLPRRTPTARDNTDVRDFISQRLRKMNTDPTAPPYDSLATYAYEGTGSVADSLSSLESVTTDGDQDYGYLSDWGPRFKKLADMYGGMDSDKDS", "experiment": "flow cytometry; 293α cells transfected with rCDH6; PE anti-human IgG Fc(gamma) goat F(ab')"}, "[4]": {"target": "T4, EC3 deletion mutant of human CDH6, on cells (human, UniProt P55285 54-790)", "T4 construct": "in p3×FLAG-CMV-9; also called EC3-deleted hCDH6", "T4 sequence": "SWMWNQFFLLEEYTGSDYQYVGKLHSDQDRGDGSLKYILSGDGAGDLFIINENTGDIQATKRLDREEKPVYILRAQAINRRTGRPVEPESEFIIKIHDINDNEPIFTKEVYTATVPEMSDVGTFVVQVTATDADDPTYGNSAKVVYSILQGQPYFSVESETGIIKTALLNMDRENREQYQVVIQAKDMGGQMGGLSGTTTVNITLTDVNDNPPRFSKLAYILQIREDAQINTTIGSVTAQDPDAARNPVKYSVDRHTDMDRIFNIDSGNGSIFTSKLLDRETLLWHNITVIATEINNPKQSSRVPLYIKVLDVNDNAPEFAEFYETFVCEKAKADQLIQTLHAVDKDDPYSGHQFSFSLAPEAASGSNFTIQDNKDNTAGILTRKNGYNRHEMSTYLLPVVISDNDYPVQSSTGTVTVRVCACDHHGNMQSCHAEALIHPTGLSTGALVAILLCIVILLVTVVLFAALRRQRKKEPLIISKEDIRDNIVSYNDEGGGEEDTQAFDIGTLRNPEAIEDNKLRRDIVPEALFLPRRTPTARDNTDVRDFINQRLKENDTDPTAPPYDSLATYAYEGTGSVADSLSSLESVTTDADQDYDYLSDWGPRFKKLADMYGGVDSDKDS", "experiment": "flow cytometry; 293α cells transfected with EC3-deleted hCDH6 (open line) against untransfected 293α cells (shaded); APC anti-human IgG goat F(ab')2; antibody concentration not given"}, "[5]": {"target": "T5, Recombinant Human CDH6 Fc His chimera (R&D Systems, Inc.) (human, UniProt P55285 54-615)", "T5 construct": "Bought reagent; also called the antigen; human CDH6 antigen; Fc part of the bought chimera not given; His tag of the bought chimera", "T5 sequence": "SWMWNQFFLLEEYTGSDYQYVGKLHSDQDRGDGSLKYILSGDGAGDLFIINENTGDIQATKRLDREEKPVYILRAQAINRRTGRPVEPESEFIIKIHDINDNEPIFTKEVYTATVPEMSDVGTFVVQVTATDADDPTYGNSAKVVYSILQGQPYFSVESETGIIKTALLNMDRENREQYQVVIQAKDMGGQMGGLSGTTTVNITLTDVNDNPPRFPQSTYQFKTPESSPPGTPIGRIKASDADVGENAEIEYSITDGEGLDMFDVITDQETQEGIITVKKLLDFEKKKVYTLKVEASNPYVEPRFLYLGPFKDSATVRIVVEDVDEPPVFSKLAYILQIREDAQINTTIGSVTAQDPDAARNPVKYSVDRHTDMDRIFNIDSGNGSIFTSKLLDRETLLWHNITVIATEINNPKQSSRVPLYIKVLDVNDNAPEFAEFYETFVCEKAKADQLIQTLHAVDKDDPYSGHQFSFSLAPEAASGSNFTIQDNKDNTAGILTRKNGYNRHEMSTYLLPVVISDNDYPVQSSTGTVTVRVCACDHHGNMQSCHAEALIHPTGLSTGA", "experiment": "SPR (Biacore T200); antigen captured by immobilized anti-His antibody, antibody as analyte 0.391 to 100 nM; steady state affinity model"}, "[6]": {"target": "T6, mouse CDH6, on cells (mouse, UniProt P97326 54-790)", "T6 construct": "also called mCDH6; NP_031692", "T6 sequence": "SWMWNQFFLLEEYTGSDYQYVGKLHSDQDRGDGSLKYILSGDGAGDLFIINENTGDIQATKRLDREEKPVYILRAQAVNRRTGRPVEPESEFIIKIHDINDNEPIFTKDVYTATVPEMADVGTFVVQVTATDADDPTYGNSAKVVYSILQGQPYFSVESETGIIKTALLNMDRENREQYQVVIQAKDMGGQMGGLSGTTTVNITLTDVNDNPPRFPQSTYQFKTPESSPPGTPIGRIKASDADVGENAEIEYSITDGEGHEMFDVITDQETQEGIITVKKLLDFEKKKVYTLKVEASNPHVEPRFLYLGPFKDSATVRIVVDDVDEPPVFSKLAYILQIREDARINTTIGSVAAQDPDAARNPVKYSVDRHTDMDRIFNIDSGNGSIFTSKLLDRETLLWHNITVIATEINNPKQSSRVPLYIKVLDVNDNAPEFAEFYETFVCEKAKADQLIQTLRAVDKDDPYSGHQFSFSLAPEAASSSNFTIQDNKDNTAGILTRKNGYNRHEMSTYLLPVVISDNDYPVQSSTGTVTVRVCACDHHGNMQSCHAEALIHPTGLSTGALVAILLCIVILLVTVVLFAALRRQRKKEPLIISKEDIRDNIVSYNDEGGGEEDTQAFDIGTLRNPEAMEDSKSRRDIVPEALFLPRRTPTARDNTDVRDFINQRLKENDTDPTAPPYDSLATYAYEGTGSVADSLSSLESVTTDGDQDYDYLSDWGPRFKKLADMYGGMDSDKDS", "experiment": "flow cytometry; 293α cells transfected with mCDH6; PE anti-human IgG Fc(gamma) goat F(ab')"}}}
{"binder": "human chimeric anti-CDH6 antibody chG019 (antibody, human IgG1, human IgG1 / kappa constant regions; also called chimeric G019 antibody; chG019 antibody) heavy: not shown light: DIQMTQSPSLLSASVGDRVTLNCKASQNIYKNLAWYQQKLGEGPKLLIYDANTLQTGIPSRFSGSGSGSDFTLTISSLQPEDVATYFCQQYYSGWAFGGVTNLELKRAVAAPSVFIFPPSDEQLKSGTASVVCLLNNFYPREAKVQWKVDNALQSGNSQESVTEQDSKDSTYSLSSTLTLSKADYEKHKVYACEVTHQGLSSPVTKSFNRGEC", "values": [{"measurement": "EC50 (read off the curve)", "setting": "[1]", "value": "~0.01", "unit": "µg/mL"}, {"measurement": "EC50 (read off the curve)", "setting": "[2]", "value": "~0.01", "unit": "µg/mL"}]}
{"binder": "humanized anti-CDH6 antibody H02L02 (antibody, human IgG1, kappa, V domains shown, hH02 heavy chain and hL02 light chain, human IgG1 / kappa; also called H02L02 antibody) VH: EVQLVQSGAEVKKPGASVKVSCKASGYTFTRNFMHWVRQAPGQGLEWMGWIYPGDGETEYNQKFQGRVTITADRSTSTAYMELSSLRSEDTAVYFCARGVYGGFAGGYFDFWGQGTLVTVSS VL: DIQMTQSPSSLSASVGDRVTITCKASQNIYKNLAWYQQKPGKAPKLLIYDANTLQTGVPSRFSGSGSGSDFTLTISSLQPEDFATYFCQQYYSGWAFGQGTKVEIKR", "values": [{"measurement": "binding result", "setting": "[3]", "value": "no binding (tested: about 4, unit not printed on the axis)"}, {"measurement": "binding result", "setting": "[4]", "value": "no binding"}, {"measurement": "Kd", "setting": "[5]", "value": 1.1, "unit": "nM"}, {"measurement": "binding result", "setting": "[6]", "value": "no binding (tested: about 4, unit not printed on the axis)"}]}
{"binder": "humanized anti-CDH6 antibody H01L02 (antibody, human IgG1, kappa, V domains shown, hH01 heavy chain and hL02 light chain, human IgG1 / kappa; also called H01L02 antibody; humanized hG019 (H01L02)) VH: EVQLVQSGAEVKKPGASVKVSCKASGYTFTRNFMHWVRQAPGQGLEWMGWIYPGDGETEYAQKFQGRVTITADTSTSTAYMELSSLRSEDTAVYYCARGVYGGFAGGYFDFWGQGTLVTVSS VL: DIQMTQSPSSLSASVGDRVTITCKASQNIYKNLAWYQQKPGKAPKLLIYDANTLQTGVPSRFSGSGSGSDFTLTISSLQPEDFATYFCQQYYSGWAFGQGTKVEIKR", "values": [{"measurement": "binding result", "setting": "[3]", "value": "no binding (tested: about 4, unit not printed on the axis)"}, {"measurement": "binding result", "setting": "[4]", "value": "no binding"}, {"measurement": "Kd", "setting": "[5]", "value": 1.5, "unit": "nM"}, {"measurement": "binding result", "setting": "[6]", "value": "no binding (tested: about 4, unit not printed on the axis)"}]}
{"binder": "humanized anti-CDH6 antibody H02L03 (antibody, human IgG1, kappa, V domains shown, hH02 heavy chain and hL03 light chain, human IgG1 / kappa; also called H02L03 antibody) VH: EVQLVQSGAEVKKPGASVKVSCKASGYTFTRNFMHWVRQAPGQGLEWMGWIYPGDGETEYNQKFQGRVTITADRSTSTAYMELSSLRSEDTAVYFCARGVYGGFAGGYFDFWGQGTLVTVSS VL: DIQMTQSPSSLSASVGDRVTITCKASQNIYKNLAWYQQKLGEGPKLLIYDANTLQTGVPSRFSGSGSGTDFTLTISSLQPEDFATYYCQQYYSGWAFGQGTKVEIKR", "values": [{"measurement": "binding result", "setting": "[3]", "value": "no binding (tested: about 4, unit not printed on the axis)"}, {"measurement": "binding result", "setting": "[4]", "value": "no binding"}, {"measurement": "Kd", "setting": "[5]", "value": 1.4, "unit": "nM"}, {"measurement": "binding result", "setting": "[6]", "value": "no binding (tested: about 4, unit not printed on the axis)"}]}
